The target in experiment [1] is T1, His-tagged human VISTA (human, UniProt Q9H7M9 33-194).
T1 construct: Bought recombinant protein with a His tag; also called human VISTA-His recombinant protein; hVISTA
The experiment can be described thus: BLI epitope binning, human VISTA-His on anti-Penta-His sensor; row = saturating antibody 400 nM; competitor added after it: V4-C1 IgG1 300 nM. The method, then:
(§1) Epitope binning experiments were performed by BLI using the Octet QK384 system (ForteBio). […] Biosensors were subsequently treated with 300 nM competing antibody in
(§2) The following antigen-binding molecules were analysed in the experiment: [1639]

For experiment [2], the target named is T1, His-tagged human VISTA. In words: BLI epitope binning, human VISTA-His on anti-Penta-His sensor; row = saturating antibody 400 nM; competitor added after it: IGN175A IgG1 300 nM. Here is the method: as §1, §2

B1: anti-VISTA clone V4-C1 IgG1 (antibody, V domains shown)
VH: QVQLQESGPGLVKPSDTLSLTCTVSGYSITSDYAWNWIRQTPGKGLEWIGYITYSGYISYNPSLRSRVTISRDTSKNQFSLKLSSVTAADTAVYSCARALYYPWYFDVWGTGTTVTVSS
VL: EIVITQSPATLSLSPGERATLSCRASSSVGYIHWYQQKPGQAPRPLIYATSNRATGIPARFSGSGSGTDNTLTISSLEPEDSAVYYCQQWSSYPPITFGGGTKLEVKR
On to B1, for which the “change in response upon addition of the competing antibody” value with His-tagged human VISTA [1] is -0.0158 nm; with His-tagged human VISTA [2], 1.07 nm.

B2: IGN175A IgG1 (antibody, V domains shown)
VH: QVQLQQSGAELMKPGASVKISCKATGYTFSTHWIEWVKQRPGHGLEWIGEILPGSGSTSYNEKFKGKATFTADTSSNTAYMQLSSLTSEDSAVYYCARWLLYYYAMDYWGQGTSVTVSS
VL: DVLMTQTPLSLPVSLGDQASISCRSSQSIVHSNGNTYLEWYLQKPGQSPKLLIYKLSNRFSGVPDRFSGSGSGTDFTLKISRVEAEDLGVYYCFQGSHFPYTFGGGTKLEIKR
notes: Prior-art comparator (WO 2014/197849)
Consider B2, for which the results for the “change in response upon addition of the competing antibody” value in the experiment with His-tagged human VISTA [1] and with His-tagged human VISTA [2] were 1.44 nm and 0.0454 nm, respectively.

For the origin of these results see patent US20210380697A1 (HUMMINGBIRD BIOSCIENCE PTE, published 2021).
